From patent US6602687B1, “DNA encoding human ciliary neurotrophic factor and method for producing the protein encoded thereby” (Regeneron Pharmaceuticals, Inc., priority 1989, dated 2003)
Where “and” joins values, the source holds several entries; their conditions need not be identical. Equal entries are not always repeated.

What was measured:
[1] = tested on: E18-19 rat hippocampal neurons; test: High affinity GABA uptake in hippocampal cultures; assay type: cell-based
Method: (§1) Hippocampi were dissected from E18-19 rat embryos of Sprague-Dawley rats, and collected in F10 medium. The tissues were minced, rinsed twice with F10 medium (Gibco) and trypsinized with 0.25% trypsin (Gibco) for 20 minutes at 37° C. Trypsin was inactivated by the addition of a serum-containing medium composed of minimal essential medium (MEM) supplemented with fetal calf serum (FCS, 10%), glutamine (2 mM), penicillin (25 U/ml) and streptomycin (25 ug/ml). Dissociated cells obtained by gentle trituration were collected and centrifuged at low speed (500 rpm) for 30 seconds. The centrifugation was repeated twice, and the cell pellets were then resuspended in serum-containing medium. The cells were then plated onto 6 mm wells or 35 mm dishes that were coated with polyornithine (10 ug/ml) and laminin (10 ug/ml). In most of the experiments, the cells were plated at a low density of approximately 71,000 cells/cm^2. Five to six hours following the plating of cells, medium was changed to a serum-free medium containing 1% N3 and penicillin-streptomycin (25 units/ml and 25 ug/ml, respectively), at which time CNTF was added. Medium was changed every three to four days, with re-addition of the factor.
To obtain neuron-enriched cultures, cytosine arabinoside (Ara-C, 0.3 uM) was added for a period of 24 hours. Under such condition, the hippocampal cultures contain approximately 5-10% glial cells, as assessed by GFAP immunohistochemistry.
Uptake of GABA into non-neuronal cells was inhibited by the additional of 2 mM B-alanine, whereas uptake specific for neurons is verified by inhibition with nipecotic acid at 1 mM.
The CNTF used in all assays was recombinant rat CNTF, expressed and purified as described in Example Section 12 supra.

[2] = tested on: E18-19 rat hippocampal neurons; test: GAD enzyme activity in hippocampal cultures; assay type: cell-based; details: recombinant rat CNTF 0.1 ng/ml; 8 days
Method: as §1, with “Five to six hours following the plating of cells, medium was changed to a serum-free medium containing 1% N3 and penicillin-streptomycin (25 units/ml and 25 ug/ml, respectively), at which time CNTF was added. Medium was changed every three to four days, with re-addition of the factor.” left out
GAD enzyme activity was determined according to the method of Kimura and Kuriyama (1975, Jpn J. Pharm. 25:189-195) by measuring the release of ^14CO2 from L-[1-^14C] glutamic acid. […] The incubation was then continued for another 60 minutes. ^14CO2 released was trapped in Hyamine base solution, and was counted. […]

[3] = tested on: motorneurons in the facial nerve nuclei; test: Unilateral facial nerve lesion in newborn rat with gelfoam implant, motorneuron count; assay type: in vivo
Method: The facial nerves of newborn rat pups were sectioned unilaterally and small gelfoam implants containing either 5 μg bovine serum albumin or 5 μg CNTF were placed at the lesion sites. […] After one week, the animals were sacrificed and sections of their brainstem, containing a facial nerve nucleus on the same side as the lesioned nerve (ipsilateral to the lesion) and a facial nerve nucleus on the side opposite to the lesion (contralateral to the lesion) were produced. The contralateral facial nucleus served as an internal control. Facial nucleus sections were stained with either Nissl stain (to stain motorneurons) or with antibody to glial fibrillary acidic protein (to detect the respose of glial cells to injury).

[4] = tested on: E18-19 rat hippocampal neurons; test: Counts of NSE-, GAD-, calbindin- and acetylcholinesterase-positive cells in hippocampal cultures; assay type: cell-based
Method: as §1
Cells were fixed with 4% paraformaldehyde for 30 minutes at room temperature, washed with PBS. For GAD staining, cells were permeabilized by sequential rinsing with 50%, 70% and 50% ethanol. The cultures were blocked by sequential rinsing with PBS containing 5% normal rabbit serum for one hour, and incubated with sheep anti-GAD antibody 1440 at a 1:6000 dilution) overnight at 4° C. Following three rinses with PBS, cells were then incubated with biotinylated rabbit anti-sheep antibody at a 1:400 dilution for at least 90 minutes at room temperature. For GABA staining, cells were permeabiized with Triton X-100 (0.25%) in Tris-HCl (0.1M, pH 7.3), and blocked with 10% normal goat serum for 90 minutes, prior to incubation with rabbit anti-GABA antibody (1:5000) ovenight at 4° C. Following three rinses with PBS, cells were then incubated with biotinylated goat anti-rabbit antibody at a 1:200 dilution for at least 90 minutes at room temperature. GAG- or GABA imminoreactive cells were visualized by using the Vectastain ABC kit (Vector Labs).
Following fixing with 4% paraformaldehyde, cells were blocked with 10% normal goat serum (NGS) in PBS containing 0.1% Triton X-100. The cells were then incubated with the primary antibody (rabbit anti-NSE, 1:5000) overnight at 4° C. The cells were then incubated with the secondary antibody (goat anti-rabit, 1:200 dilution) for at least 90 minutes at room temperature. NSE-immunopositive cells were visualized using the Vectastain ABC kit (Vector Labs).
Cells were rinsed twice with PBS, and fixed with 4% paraformaldehyde for 30 minutes at room temperature. […]

[5] = gelfoam implant impregnated with CNTF, one week
[6] = gelfoam with 5 μg purified rat sciatic nerve CNTF, one week after lesion
[7] = single animals, gelfoam with 5 μg purified rat sciatic nerve CNTF, one week after lesion
[8] = recombinant rat CNTF 10 ng/ml, 8 days

B1: CNTF: ciliary neurotrophic factor; recombinant rat CNTF in Sections 10, 15, 17, purified rat sciatic nerve CNTF in Section 11; see endpoint conditions (protein, UniProt P20294 1-200, looked up)
Ciliary neurotrophic factor: MAFAEQTPLTLHRRDLCSRSIWLARKIRSDLTALMESYVKHQGLNKNINLDSVDGVPVASTDRWSEMTEAERLQENLQAYRTFQGMLTKLLEDQRVHFTPTEGDFHQAIHTLMLQVSAFAYQLEELMVLLEQKIPENEADGMPATVGDGGLFEKKLWGLKVLQELSQWTVRSIHDLRVISSHQMGISALESHYGAKDKQM
[1]; 71,000 cells/cm2, CNTF 10 ng/ml, 8 days
  increase in Gaba uptake at low plating density: approximately 2.6 fold
[1]; 143,000 cells/cm2, CNTF 10 ng/ml
  increase in Gaba uptake at higher plating density: failed to induce a significant increase
[1]; AraC-treated neuron-enriched cultures
  concentration of CNTF required for a maximal response in GABA uptake: 0.03 ng/mL
[1]; CNTF 10 ng/ml
  increase in Gaba uptake, CNTF added on the third day and cells treated for 8 days: failed to induce increase in Gaba uptake
[1]; CNTF 10 ng/ml, assayed 7 days later
  CNTF-induced increase in GABA uptake, addition delayed by one day: lowered
[1]; CNTF 10 ng/ml, uptake on the eighth day in culture
  CNTF-induced increase in GABA uptake, addition on the third day after plating: no longer produced an increase in GABA uptake
[1]; neuron-enriched cultures, cytosine arabinoside 0.3 uM for 24 h, 8 days
  increase in Gaba uptake versus untreated controls in AraC-treated cultures: 2.4 fold
[1]; neuron-glia mixed cultures (−AraC)
  concentration of CNTF required for a maximal response in GABA uptake: 0.1 ng/mL
[1]; recombinant rat CNTF 0.1 ng/ml for 8 days
  maximal increase in specific neuronal GABA uptake (dose response): approximately 3 fold
[1]; recombinant rat CNTF 10 ng/ml, 8 days after addition, 71,000 cells/cm2
  maximal increase in specific neuronal GABA uptake versus untreated controls: approximately 4 fold
[1]; recombinant rat CNTF, 8 days
  concentration at which specific neuronal GABA uptake was increased: 0.01 ng/mL
[2]
  maximal increase in GAD enzyme activity: 3.8 fold
[3]; CNTF applied to cut stump of newborn rat facial nerve
  facial nerve motorneurons rescued that would normally have died after axotomy: at least 60%
[3]; [5]
  loss of motorneurons ipsilateral to the lesion: ~30%
  motorneuron pool ipsilateral to the lesion, of normal: 70%
[3]; gelfoam with 5 μg CNTF
  gliosis in facial nuclei ipsilateral to lesion (anti-GFAP staining), versus BSA treated rats: comparable amount of gliosis
[3]; [6]
  Count of motorneurons in the facial nerve nuclei, Contralateral (Control side), group mean (in brackets): (3301)
  Count of motorneurons in the facial nerve nuclei, Lesion-side, group mean (in brackets): (2120)
[3]; [7]
  Count of motorneurons in the facial nerve nuclei, Contralateral (Control side): 3425 and 2990 and 3490
  Count of motorneurons in the facial nerve nuclei, Lesion-side: 2205 and 3445 and 1270 and 3095
[4]; [8]
  increase in number of GAD-positive neurons: 2.3 fold
  increase in number of NSE-positive neurons: 2.2 fold
[4]; recombinant rat CNTF 10 ng/ml, low-density cultures
  increase in calbindin-immunopositive cells: 3 fold
[4]; recombinant rat CNTF, after 8 days in culture
  increase in number of acetylcholinesterase positive cells versus controls: approximately 17 fold
